Assay results taken from PMC5789848.

What was measured:
[1] = system: T1, UPF1-HD (Homo sapiens), Q92900-2; experiment: BLI; conditions: BLI: 20 mM HEPES pH 7.5, 150 mM K acetate, 2 mM Mg acetate, 1 mM DTT, 6.3% glycerol, 0.1% NP-40; EMSA: 20 mM MES pH 6.0, 150 mM K acetate, 2 mM DTT, 0.2 ug/ul …
T1 sequence: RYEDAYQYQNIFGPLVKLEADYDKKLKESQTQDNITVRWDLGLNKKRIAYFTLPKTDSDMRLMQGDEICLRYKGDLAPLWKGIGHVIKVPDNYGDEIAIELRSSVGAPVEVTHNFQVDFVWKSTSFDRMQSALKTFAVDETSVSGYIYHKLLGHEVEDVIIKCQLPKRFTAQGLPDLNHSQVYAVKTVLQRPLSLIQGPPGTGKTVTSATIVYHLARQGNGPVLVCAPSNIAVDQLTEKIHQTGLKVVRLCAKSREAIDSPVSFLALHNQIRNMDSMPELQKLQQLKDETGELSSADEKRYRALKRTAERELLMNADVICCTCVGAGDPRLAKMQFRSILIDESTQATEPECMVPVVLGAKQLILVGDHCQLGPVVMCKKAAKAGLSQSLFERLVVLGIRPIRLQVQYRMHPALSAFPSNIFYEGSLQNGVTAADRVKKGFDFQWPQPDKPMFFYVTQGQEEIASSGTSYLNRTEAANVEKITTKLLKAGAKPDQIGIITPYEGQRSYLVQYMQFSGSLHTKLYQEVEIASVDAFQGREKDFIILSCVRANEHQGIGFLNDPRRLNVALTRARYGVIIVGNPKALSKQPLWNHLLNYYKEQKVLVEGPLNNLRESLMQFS

[2] = target: GST-Tax_(CACA) (HTLV-1 Tax with C23 and C29 changed to alanine, N-terminal GST fusion) (HTLV-1) (UniProt P03409); experiment: BLI; BLItz; GST-Tax covalently bound to an AR2G sensor; UPF1 His-HD proteins in running buffer (300 mM NaCl, 20 mM phosphate, 0.02% Tween 20, 0.1% albumin); 250 s association, 60 s dissociation

Row | Substance | Kd [1] | fold change of KD against WT [2]
1 | 5'-biotin 30-mer ssDNA (BLI) | 8.25 nM | –
2 | UPF1-HD_(R843C), histidine-tagged (from UniProt Q92900-2 295-914) (domain or fragment) | – | 3.2 times
